Results taken from patent publication US20250270343A1 (Alector, published 2025).
Where a chain is given by its changes, count along the chain named. Values belong to the binder of their own block, whether it stands above or below them.

Biological target: T1, soluble cynomolgus GPNMB (recombinant extracellular domain) (cynomolgus, UniProt Q14956 23-499 (human entry), limits assumed)
T1 chain: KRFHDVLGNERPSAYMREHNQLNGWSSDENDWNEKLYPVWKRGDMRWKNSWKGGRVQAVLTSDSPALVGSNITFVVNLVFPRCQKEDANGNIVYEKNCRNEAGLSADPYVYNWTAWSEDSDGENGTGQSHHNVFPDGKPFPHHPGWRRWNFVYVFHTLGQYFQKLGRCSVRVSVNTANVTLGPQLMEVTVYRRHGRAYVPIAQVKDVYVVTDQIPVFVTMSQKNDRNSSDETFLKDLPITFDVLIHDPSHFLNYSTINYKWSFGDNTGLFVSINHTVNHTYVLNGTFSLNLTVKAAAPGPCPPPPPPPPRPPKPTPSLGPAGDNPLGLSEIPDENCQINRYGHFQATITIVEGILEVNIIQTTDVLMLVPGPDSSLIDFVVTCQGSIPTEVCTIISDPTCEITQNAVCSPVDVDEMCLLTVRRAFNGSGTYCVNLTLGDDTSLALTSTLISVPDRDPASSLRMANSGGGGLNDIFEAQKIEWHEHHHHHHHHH
Experiment: SPR binding
Method: Binding kinetics of human anti-GPNMB IgG1 antibodies of the present disclosure to human, cynomolgus, and mouse GPNMB were evaluated using a Carterra LSA instrument (Carterra, Salt Lake City, UT). […] A HC200M sensor chip (Carterra) was activated using the single channel flow cell with a 7-minute injection of a 1:1:1 mixture of 100 mM MES pH 5.5, 100 mM sulfo-NHS, 400 mM EDC (all reconstituted in MES pH 5.5; 100 μl of each mixed in vial immediately before running assay). After switching to the multi-channel array flow cell, the antibodies were injected over the activated chip in a 96-spot array for 15 minutes. The remaining unconjugated active groups on the chip were then blocked by injecting 1M Ethanolamine pH 8.5 (Carterra) for 7 minutes using the single channel flow cell.
After priming with running buffer (HBS-EP+, Teknova) with 0.5 mg/ml BSA (Sigma), the immobilized anti-GPNMB antibodies were tested for their ability to bind to several forms of recombinant GPNMB extracellular domain, including human, cynomolgus, and mouse orthologs as described above. Estimates of affinity were generated by injecting each analyte over the entire antibody array using the single channel flow cell. GPNMB analytes were diluted to 2.5, 7.4, 22, 67, 200, and 600 nM in running buffer, and injected in serial from lowest to highest concentration without regeneration. Two buffer blanks were run between each series (one species per series). Data were processed and analyzed using Kinetics high-throughput kinetics analysis software (Carterra).

B1: anti-GPNMB antibody GPN-38 (antibody, human IgG1, V domains shown)
VH: QVQLQQPGAELVRPGTSVRLSCKASGYTFTSYWIHWVKQRPGRGLEWIGVIDPSDSYTNYNQQFNVKATLTVDTSSSAAYMQLSSLTSEDSAVYYCARGLITAVNWYFDVWGTGTTVTVSS
VL: DIQMTQSPASLSTSVGEIVTITCRASENIYSYLTWYQQKQGKSPQLLVYNAKTLAEGVPSRFSGSGSGTQFSLKINSLQPEDFGTYYCQHHYGTPLTFGSGTKLEIK
notes: chimeric
binding result: binds

B2: anti-GPNMB antibody GPN-48 (antibody, human IgG1, V domains shown)
VH: QVQLQQSGPELVKPGASVKLSCRASGYGFSSFWMNWVKQRPGKGLEWIGRIYPGKGDTLYNGKFKDKATLTADESSSTAYMQLSSLTSEDSAVYFCARSIYYYDYWYFDVWDTGTTVTVSS
VL: DIVMTQSHKFMSTSVGDRVNITCKASQDVNSAIAWYQQKPGQSPKLLIYSASYRFIGVPDRFTGSGSGTGFTFTISSVQAEDLAVYYCQQHYTTPLTFGAGTKLELK
notes: chimeric
binding result: binds

B3: anti-GPNMB antibody GPN-41 (antibody, human IgG1, V domains shown)
VH: QLQLQQSGTEVVKPGASVKIPCKASGYAFSSYWMNWVKQRPGKGLEWIGQIYPGDGDTNDNGKFEGKATLTVDKSSNTAYIQLSSLTSEDSAVYFCARSPLHLRGSMDYWGQGTSVTVSS
VL: SIVMTQTPKFLLVSAGDRVTITCKASQSVSNDVAWFQQKPGQSPELLIYSASNRYTGVPDRFTASGYGTDFTFTISAVQAEDLAVYFCQQNYYSPFTFGGGTRLEIK
notes: chimeric
binding result: binds

B4: anti-GPNMB antibody GPN-65 (antibody, human IgG1, V domains shown)
VH: B3 VH
VL: B3 VL with A64G, A77T
notes: chimeric
binding result: binds

Further lines, results first:

binding result: binds
B5: anti-GPNMB antibody GPN-42 (antibody, human IgG1, V domains shown)
VH: DVKLVESGEDLVKPGGSLKLSCAASGFTFSSYAMSWVRQTPEKRLEWVAYISSGGDYIYYADTVKGRFTISRDNARNTLYLQMSSLKSEDTAMYYCTRDRYYDYDVRDYYTMDYWGQGTSVTVSS
VL: DVMMTQTPLSLPVSLGDQASISCRSSQSLVHSNGNTYLHWFLQKPGQSPKLLIFRVSNRFSGVPDRFSGRGSGTDFTLKISRVEAEDLGVYFCSQTTHVPRTFGGGTTLEIK
notes: chimeric

binding result: binds
B6: anti-GPNMB antibody GPN-43 (antibody, human IgG1, V domains shown)
VH: EVQLQQSGPELVKPGASVKISCKASGYTFTDYYMNWVRQSHGKSLEWIGDINPYHGGSTYNQKIKVKATLTVDKSSSTAYMELRSLTSEDSAVYYCARNWPYFDYWGQGTTLTVSS
VL: DIQMTQSPASLSASVGETVTITCRASENIYSFLVWYQQKQGKSPQLLVYNAKTLAEGVPSRFSGSGSGTQFSLKISSLQPEDFGSYYCQHHFGTPPYTFGGGTKLEIK
notes: chimeric
